Measured values taken from US20200199241A1 (Chugai, published 2020).

T1: human FcγRIIa(R) (human, UniProt P12318 36-217)
T1 construct: also called FcgRIIaR; hFcgRIIa(R)
T1 chain: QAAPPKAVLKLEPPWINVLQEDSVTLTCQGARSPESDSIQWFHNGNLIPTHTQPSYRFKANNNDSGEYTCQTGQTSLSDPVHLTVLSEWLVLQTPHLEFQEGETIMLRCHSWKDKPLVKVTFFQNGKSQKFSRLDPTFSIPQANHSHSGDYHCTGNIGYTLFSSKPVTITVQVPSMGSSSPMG

T2: human FcγRIIa(H) (human, UniProt P12318 36-217)
T2 construct: also called FcgRIIaH; hFcgRIIa(H)
T2 sequence: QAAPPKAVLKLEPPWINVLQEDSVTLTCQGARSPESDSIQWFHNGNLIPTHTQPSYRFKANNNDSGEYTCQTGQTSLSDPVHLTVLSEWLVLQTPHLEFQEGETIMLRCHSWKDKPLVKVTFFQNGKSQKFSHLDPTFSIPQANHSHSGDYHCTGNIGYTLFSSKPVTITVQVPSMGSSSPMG

T3: human FcγRIIb (human, UniProt P31994 43-217, limits assumed)
T3 construct: also called FcgRIIb; hFcgRIIb
T3 sequence: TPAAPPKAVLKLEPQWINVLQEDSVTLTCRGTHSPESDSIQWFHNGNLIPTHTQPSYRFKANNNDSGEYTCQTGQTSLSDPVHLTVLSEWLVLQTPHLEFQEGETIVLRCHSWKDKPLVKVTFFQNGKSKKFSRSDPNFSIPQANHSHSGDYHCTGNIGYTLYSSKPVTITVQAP


Assays:
[1] = biological target: T4, human FcγRIa (human, UniProt P12314 16-292, limits assumed); experiment: SPR, pH 7.4, antibody captured by Protein L
T4 construct: also called FcgRIa; hFcgRIa
T4 sequence (P12314 16-292 limits assumed): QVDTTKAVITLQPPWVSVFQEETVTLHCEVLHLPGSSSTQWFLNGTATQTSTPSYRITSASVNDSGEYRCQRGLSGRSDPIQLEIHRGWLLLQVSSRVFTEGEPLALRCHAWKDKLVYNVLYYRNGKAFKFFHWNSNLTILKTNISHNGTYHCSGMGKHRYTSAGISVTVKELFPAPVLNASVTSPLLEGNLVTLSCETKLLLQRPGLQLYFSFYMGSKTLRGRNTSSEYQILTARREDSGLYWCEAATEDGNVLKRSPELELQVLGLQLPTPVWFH

[2] = biological target: T1, human FcγRIIa(R); experiment: SPR, pH 7.4, antibody captured by Protein L
[3] = biological target: T2, human FcγRIIa(H); experiment: SPR, pH 7.4, antibody captured by Protein L
[4] = biological target: T3, human FcγRIIb; experiment: SPR, pH 7.4, antibody captured by Protein L
[5] = biological target: T5, human FcγRIIIa(V) (human, UniProt P08637 17-208, limits assumed); experiment: SPR, pH 7.4, antibody captured by Protein L
T5 construct: also called hFcgRIIIa(V); FcγRIIIa allotype V158
T5 sequence (P08637 other isoform, or with tags, fused parts or gaps limits assumed): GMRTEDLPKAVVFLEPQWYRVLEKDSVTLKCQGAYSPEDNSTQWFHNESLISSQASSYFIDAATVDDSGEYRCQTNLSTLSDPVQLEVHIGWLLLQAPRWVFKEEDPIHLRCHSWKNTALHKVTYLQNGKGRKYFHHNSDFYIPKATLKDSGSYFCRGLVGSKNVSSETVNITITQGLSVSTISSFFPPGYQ

[6] = biological target: T6, human FcRn (complex with human β2-microglobulin) (human, UniProt P61769 21-119, limits assumed); experiment: SPR, pH 7.0, antibody captured by Protein L, hFcRn analyte
T6 construct: soluble human FcRn complexed with β2-microglobulin was used; also called hFcRn

binding amount [1]	binding amount [2]	binding amount [3]	binding amount [4]	binding amount [5]	Kd [6]	Binder
367 RU	92.8 RU	37.5 RU	71.8 RU	15.5 RU	140 nM	VH3-IgG4-F890/L(WT)-CK (antibody, M252Y/N434Y/Y436V in VH3-IgG4; copies: 2 + 2) heavy: QVQLQESGPGLVKPSETLSLTCAVSGHSISHDHAWSWVRQPPGEGLEWIGFISYSGITNYNPSLQGRVTISRDNSKNTLYLQMNSLRAEDTAVYYCARSLARTTAMDYWGEGTLVTVSSASTKGPSVFPLAPCSRSTSESTAALGCLVKDYFPEPVTVSWNSGALTSGVHTFPAVLQSSGLYSLSSVVTVPSSSLGTKTYTCNVDHKPSNTKVDKRVESKYGPPCPPCPAPEFLGGPSVFLFPPKPKDTLYISRTPEVTCVVVDVSQEDPEVQFNWYVDGVEVHNAKTKPREEQFNSTYRVVSVLTVLHQDWLNGKEYKCKVSNKGLPSSIEKTISKAKGQPREPQVYTLPPSQEEMTKNQVSLTCLVKGFYPSDIAVEWESNGQPENNYKTTPPVLDSDGSFFLYSRLTVDKSRWQEGNVFSCSVMHEALHYHVTQKSLSLSL light: not shown
1.2 RU	-0.2 RU	-0.7 RU	0.4 RU	-0.5 RU	110 nM	VH3-IgG4-F939/L(WT)-CK (antibody, L235R/S239K/M252Y/N434Y/Y436V in VH3-IgG4; copies: 2 + 2) heavy: QVQLQESGPGLVKPSETLSLTCAVSGHSISHDHAWSWVRQPPGEGLEWIGFISYSGITNYNPSLQGRVTISRDNSKNTLYLQMNSLRAEDTAVYYCARSLARTTAMDYWGEGTLVTVSSASTKGPSVFPLAPCSRSTSESTAALGCLVKDYFPEPVTVSWNSGALTSGVHTFPAVLQSSGLYSLSSVVTVPSSSLGTKTYTCNVDHKPSNTKVDKRVESKYGPPCPPCPAPEFRGGPKVFLFPPKPKDTLYISRTPEVTCVVVDVSQEDPEVQFNWYVDGVEVHNAKTKPREEQFNSTYRVVSVLTVLHQDWLNGKEYKCKVSNKGLPSSIEKTISKAKGQPREPQVYTLPPSQEEMTKNQVSLTCLVKGFYPSDIAVEWESNGQPENNYKTTPPVLDSDGSFFLYSRLTVDKSRWQEGNVFSCSVMHEALHYHVTQKSLSLSL light: not shown
1.3 RU	1 RU	1 RU	0.4 RU	1.1 RU	140 nM	VH3-IgG2-F939/L(WT)-CK (antibody, A235R/S239K/M252Y/N434Y/Y436V in VH3-IgG2; copies: 2 + 2) heavy: QVQLQESGPGLVKPSETLSLTCAVSGHSISHDHAWSWVRQPPGEGLEWIGFISYSGITNYNPSLQGRVTISRDNSKNTLYLQMNSLRAEDTAVYYCARSLARTTAMDYWGEGTLVTVSSASTKGPSVFPLAPCSRSTSESTAALGCLVKDYFPEPVTVSWNSGALTSGVHTFPAVLQSSGLYSLSSVVTVPSSNFGTQTYTCNVDHKPSNTKVDKTVERKCCVECPPCPAPPVRGPKVFLFPPKPKDTLYISRTPEVTCVVVDVSHEDPEVQFNWYVDGVEVHNAKTKPREEQFNSTFRVVSVLTVVHQDWLNGKEYKCKVSNKGLPAPIEKTISKTKGQPREPQVYTLPPSREEMTKNQVSLTCLVKGFYPSDIAVEWESNGQPENNYKTTPPMLDSDGSFFLYSKLTVDKSRWQQGNVFSCSVMHEALHYHVTQKSLSLSP light: not shown
